# Test: Serum insulin concentration profile in hairless rats after transdermal patch over micropores or subcutaneous dosing
# Type: in vivo
# Text: This example illustrates the ability of the microporation system to mimic the delivery of a subcutaneous infusion of insulin. Hairless rats were purchased and dosed with insulin in accordance with the terms set forth below. The insulin concentration within the serum of the rats was then monitored at given time intervals to provide a blood serum insulin concentration profile.
# Three hairless rats were given a 1 U/kg dose of insulin by way of subcutaneous administration. The concentration of insulin in the rats' blood serum was monitored. The average insulin blood serum concentration for the three rats was determined.
# Five hairless rats were purchased from Charles River. Jugular vein cannulation was performed the day before the experiment to allow the animals recovering from the surgery.
# The experiment was conducted as follows. The rats were anesthetized immediately before the skin treatment, which consisted of cleaning the abdomen side of the rat skin with an alcohol swab. The abdomen was allowed to air dry.
# After the abdomen dried, the microporation system was placed longitudinally, and the bottom corners marked, on the cleaned skin site. The cleaned skin site was then microporated using the microporation system. Following microporation, the microporation system was removed and a liquid reservoir patch was placed on the microporated area. The patch was then filled with a 50 IU/ml dose of insulin and a time-zero sample was immediately taken. The remaining samples were taken according to the preset schedule.
# After the sample at the 4th hour was taken, the rats were anesthetized to retrieve the donor solution from the liquid reservoir patch. Blood sampling continued until the 8th hour.
# Afterward, the test was conducted again, however the patch applied was 2 cm^2 in area. Lastly, the test was performed for a third time, with the patch having a size of 3 cm^2.
# Three hairless rats were prepared and tested in accordance with the procedure set forth in Test 1 above. However, for this test, a second generation planar microporation system was used to create the micropores in the abdomen of each rat. In addition, the transdermal patch contained a 50 IU/ml dose of insulin when applied to the microporated area of the skin of each rat.
# This test was designed to determine any differences in the types of transdermal patches used to deliver insulin through the micropores. Five hairless rats were prepared and tested in accordance with the procedure set forth in Test 1 above. Following microporation of each rat, an early prototype liquid reservoir patch was applied to two of the rats, while a second generation transdermal patch was used to deliver insulin in the remaining three rats. Each patch contained a 50 IU/ml dose of insulin when applied to the microporated area of the skin of each rat.
# A number of rats were prepared in accordance with the procedure set forth in Test 1 above. For those rats that had delivery openings formed on their abdomen, the delivery openings were formed using an early prototype microporation system. Insulin was delivered to the rats using a second generation delivery patch containing the desired concentration of insulin.
# The delivery patch was applied to the rats' abdomen without microporation. The rats in this control group were given a […] concentration dose of insulin.
# For the other rats in this test, the delivery patch contained insulin in concentrations of 10 IU/ml (6 rats), 25 IU/ml (6 rats), […] or 100 IU/ml (6 rats). The insulin serum concentration was monitored in each of the rats at various intervals of time. The average concentration of the rats for that particular insulin concentration (and whether delivery openings were formed or not) was determined and an insulin serum concentration profile was developed.
substance,measurement,setting,value
insulin,"average insulin serum concentration, transdermal through micropores versus subcutaneous","50 IU/ml patch for 4 hours (5 rats) vs 1 U/kg subcutaneous (3 rats), FIG. 5",higher average concentration
same,"duration of higher average insulin serum concentration, transdermal versus subcutaneous","50 IU/ml patch for 4 hours vs 1 U/kg subcutaneous, FIG. 5",longer duration
same,"insulin serum concentration, planar array microporation system versus step and repeat microporation system","50 IU/ml patch for 4 hours, FIG. 7",slightly lower
same,"average insulin serum concentration, change with patch size 1 cm^2 to 2 cm^2","50 IU/ml patch, 4 rats, FIG. 6",roughly doubled
same,"average insulin serum concentration, change with patch size 2 cm^2 to 3 cm^2","50 IU/ml patch, 4 rats, FIG. 6",roughly doubled
same,"average insulin concentration, early prototype liquid reservoir patch versus second generation transdermal patch","50 IU/ml patch, FIG. 8",very similar
same,"average insulin serum concentration, 100 IU/ml dose in comparison to other doses","microporated, 100 IU/ml patch, 6 rats, FIG. 9",very high
same,"average insulin serum concentration, 50 IU/ml dose versus 25 IU/ml dose","microporated, FIG. 9",not much difference
same,"average insulin serum concentration, rats without delivery openings","patch on non-microporated abdomen, 3 rats, FIG. 9",very low
